Data from paper PMC2408616, “Modular Organization and Combinatorial Energetics of Proline–Tyrosine Nuclear Localization Signals” (PLoS Biology, 2008).

B1: MBP–Hrp1p NLS [S. cerevisiae] / Kap104p [yeast (S. cerevisiae)] (parent)
chain 1: RDRNDRDRDYNHRSGGNHRRNGRGGRGGYNRRNNGYHPYNR
chain 2: MASTWKPAEDYVLQLATLLQNCMSPNPEIRNNAMEAMENFQLQPEFLNYLCYILIEGESDDVLKQHYSLQDLQNNRATAGMLLKNSMLGGNNLIKSNSHDLGYVKSNIIHGLYNSNNNLVSNVTGIVITTLFSTYYRQHRDDPTGLQMLYQLLELTSNGNEPSIKALSKIMEDSAQFFQLEWSGNTKPMEALLDSFFRFISNPNFSPVIRSESVKCINTVIPLQTQSFIVRLDKFLEIIFQLAQNDENDLVRAQICISFSFLLEFRPDKLVSHLDGIVQFMLHLITTVNEEKVAIEACEFLHAFATSPNIPEHILQPYVKDIVPILLSKMVYNEESIVLLEASNDDDAFLEDKDEDIKPIAPRIVKKKEAGNGEDADDNEDDDDDDDDEDGDVDTQWNLRKCSAATLDVMTNILPHQVMDIAFPFLREHLGSDRWFIREATILALGAMAEGGMKYFNDGLPALIPFLVEQLNDKWAPVRKMTCWTLSRFSPWILQDHTEFLIPVLEPIINTLMDKKKDVQEAAISSVAVFIENADSELVETLFYSQLLTSFDKCLKYYKKKNLIILYDAIGRFAEKCALDETAMQIILPPLIEKWALLSDSDKELWPLLECLSCVASSLGERFMPMAPEVYNRAFRILCHCVELEAKSHQDPTIVVPEKDFIITSLDLIDGLVQGLGAHSQDLLFPQGTKDLTILKIMLECLQDPVHEVRQSCFALLGDIVYFFNSELVIGNLEDFLKLIGTEIMHNDDSDGTPAVINAIWALGLISERIDLNTYIIDMSRIILDLFTTNTQIVDSSVMENLSVTIGKMGLTHPEVFSSGAFANDSNWNKWCLSVNALDDVEEKSSAYMGFLKIINLTSTEVTMSNDTIHKIVTGLSSNVEANVFAQEIYTFLMNHSAQISAINFTPDEISFLQQFTS
B2: MBP–Nab2p NLS [S. cerevisiae] / Kap104p [yeast (S. cerevisiae)] (parent)
chain 1: DNSQRFTQRGGGAVGKNRRGGRGGNRGGRNNNSTRFNPLAKALGMAGESNM
chain 2: B1 chain 2

Experiments:
Experiment in all cases: ITC
[1] = variants of: B1; conditions: with Kap104p [yeast (S. cerevisiae)]
[2] = variants of: B1; conditions: with Kap104p [yeast (S. cerevisiae)]; for ratio to parent: parent: 1; for Kd: parent: 32 nM
[3] = variants of: B2; conditions: with Kap104p [yeast (S. cerevisiae)]; for ratio to parent: parent: 1; for dG: parent: -10

screen value [1] [kcal/mol/K] | ddG [2] [kcal/mol] | screen value [2] [kcal/mol] | ratio to parent [2] | Kd [2] [nM] | ddG [3] [kcal/mol] | screen value [3] [kcal/mol] | ratio to parent [3] | dG [3] [kcal/mol] | Variant
-2.2 | -0.5 | -12.7 | 0.4 |  |  |  |  |  | chain 1 R32A
 |  |  |  | 143 |  |  |  |  | chain 1 Y36A
-0.9 | -0.02 | -10.9 | 1.1 |  |  |  |  |  | chain 1 Y36L
 |  |  |  | 194 |  |  |  |  | chain 1 R19A R20A R23A R26A
-1.8 | 0.07 | -11.7 | 1.1 |  |  |  |  |  | chain 1 R31A
-2.2 | 0.4 | -11.9 | 1.9 | 60 |  |  |  |  | chain 1 R19A Y36A
-2.8 | -0.05 | -12.8 | 1.1 | 36 |  |  |  |  | chain 1 R19K R20K R23K R26K
 |  |  |  |  | -0.3 | -8.4 | 1.8 | -9.7 | chain 1 F36L
 |  |  |  |  |  |  | > 200 |  | chain 1 R18A R19A R22A R26A R29A P38A L39A
 |  |  |  |  | -0.4 | -9.9 | 0.6 | -10.3 | chain 1 R18K R19K R22K R26K R29K
